Key:
[1] = target: the molecule itself; test: SDS-PAGE; oligomeric status of the purified protein checked by SDS-PAGE (13.5%)
[2] = target: the molecule itself; test: FRET or BRET; homo-FRET among TMR dyes on C116 of different subunits, read by steady-state and time-resolved fluorescence anisotropy; detergent-solubilised protein, 6 µM (monomer based), 5 mM DDM, 200 mM KCl (also RbCl or NaCl), pH 3.5-7.0, 25 °C; D:P 0.05 to 0.60

Protein | stoichiometry N [1] | binding result [2]
TMR-labeled G116C W26, 68, 87, 113F KcsA (full-length) (natural protein, S. lividans, UniProt P0A334 1-160, looked up, tetramethylrhodamine-5-maleimide (TMR) conjugated to cysteine 116; final dye-to-protein molar ratio D:P 0.05 to 0.60, so not every subunit carries a dye, KcsA potassium channel from S. lividans, full-length subunit, with four of the five Trp mutated to Phe (W67 left) and G116C for labelling; Homotetrameric channel; Plasmids pQE-60 and pQE-1 are named for G116C W67 and G116C WT; also called TMR-labeled G116C W67 KcsA; TMR conjugated G116C W67 KcsA; source: E. coli M15 (pRep4), purified (IMAC), labelled with tetramethylrhodamine-5-maleimide, …) MPPMLSGLLARLVKLLLGRHGSALHFRAAGAATVLLVIVLLAGSYLAVLAERGAPGAQLITYPRALWFSVETATTVGYGDLYPVTLFGRLVAVVVMVAGITSFGLVTAALATFFVCREQERRGHFVRHSEKAAEEAYTRTTRALHERFDRLERMLDDNRR | 4 | 
C-terminal truncated (Δ125) TMR-labeled G116C W67 KcsA (domain or fragment, S. lividans, UniProt P0A334 1-124, looked up, tetramethylrhodamine-5-maleimide (TMR) conjugated to cysteine 116; D:P = 0.60, KcsA potassium channel from S. lividans after removal of the C-terminal domain (amino acids 125–160) by chymotrypsin; W67 background with G116C; The limit 124 follows from the stated removal of amino acids 125–160; If the His tag stood at the C-terminus it would be lost with the cleaved fragment; also called truncated protein; proteolytically cleaved TMR-labeled G116C W67 KcsA) MPPMLSGLLARLVKLLLGRHGSALHFRAAGAATVLLVIVLLAGSYLAVLAERGAPGAQLITYPRALWFSVETATTVGYGDLYPVTLFGRLVAVVVMVAGITSFGLVTAALATFFVCREQERRGH |  | binds
